Measurements reported in patent US7087392B2, “Antiproliferative SgK reagents and methods” (The Regents of the University of California, priority 1999, dated 2006).

What was measured:
Sgk = assay: In vitro peptide kinase assay (Sgktide, [32P]ATP) of immunoprecipitated HA-Sgk; type: biochemical; details: mutant forms of Sgk
Excerpt: Sgk is a component of the PI3 kinase cascade and is directly activated by PDK1 mediated phosphorylation of threonine 256 in the activation loop. […] To develop this kinase assay, lysates from human embryo kidney 293 cells transfected to express wild type hemagglutinin (HA)-tagged Sgk (HA-Sgk) were isolated and the Sgk immunoprecipitated with HA antibodies was used to screen a synthetic peptide library for identifying potential Sgk substrates. The immunoprecipitates were extensively washed, and incubated with the peptide in the presence of [^32P]ATP in kinase buffer (Park et al 1999). Sgk phosphorylated several peptides, and the best substrate for Sgk was KKRNRRLSVA (SEQ ID NO:01), which is named Sgktide. […] This substrate specificity is generally similar to, but not identical, with the substrate specificity for Akt, which is a well characterized down stream component of the PI 3 kinase pathway.
Cotransfection of PDK1 with Sgk caused a 6-fold activation of Sgk activity, whereas, the kinase-dead form of PDK1 had no effect. […] The Ser-78 in the amino terminal domain is a third phosphorylation site and expression of the S78G Sgk mutation ablates the presence of the slowest migrating form of phosphorylated Sgk in SDS polyacrylamide gels.

mammary epithelial cells = assay: Co-staining for ectopically expressed Sgk and apoptotic cells (TUNEL fluorescence assay); type: cell-based; details: after hyperosmotic stress, ectopic expression
mammary tumor cells = assay: Transient cell foci growth assay of transfected mammary tumor cells; type: cell-based; details: transfected expression vector, G418 selection
Excerpt: Functional evidence for a direct role of sgk in the glucocorticoid anti-proliferative pathway. In both the Con8 mammary epithelial tumor cells (from which Sgk was originally cloned) as well as human MCF-7 breast cancer cells (which were originally derived from a pleural effusion of a metastatic human breast adenocarcinoma) glucocorticoids induce a G1 block in cell cycle progression and strongly stimulate sgk transcript and protein production. […] To initially test whether Sgk has an anti-proliferative function and perhaps mediates the glucocorticoid growth inhibitory response, the full length rat or human wild type sgk cDNA was inserted downstream of the cytomegalovirus (CMV) promoter in an expression vector that also encodes the neomycin resistance gene. […] Transfection competent cells were selected in 0.5 mg/ml of the G418 neomycin derivative for two weeks.
Expression vectors encoding several point mutants or truncations of Sgk were transfected into the mammary tumor cells and cell growth monitored by the cell foci assay.
Transient transfection and rapid screen of the sgk expression vectors for the anti-proliferative response in rodent and human mammary tumor cells. A transient cell foci growth assay is employed to rapidly screen the various Sgk constructs to define the domains that mediate the anti-proliferative response in rat and human mammary tumor cells using our optimized conditions. The advantage of this assay is that many different mutant Sgk expression vectors can be simultaneously compared for their growth inhibitory effects. Also, this assay can be used to rapidly assess the proliferative effects of combinations of Sgk and its interacting proteins or substrates. Populations of human MCF-7 breast cancer cells or rat Con8 mammary tumor cells are transfected by the lipofectin transfection procedures and cultured in normally cytotoxic concentrations (750 μg/ml) of the G418 neomycin derivative to recover transfection competent cells. Approximately 5000 transfected cells are cultured as colonies on plastic, and after one to two weeks are fixed and stained in crystal violet/formalin to visualize the cell colonies. The effects on cell proliferation are quantitated by simply counting the resulting cell colonies or by scanning the total cell density on each plate. To provide a control for the fidelity of the cell foci assays, in each experiment, cells transfected with the control vectors (no Sgk sequences) are treated with or without 1 μM dexamethasone because the cells are growth suppressed by this synthetic glucocorticoid. […]

B1: K127M: Sgk with lysine 127 in the ATP binding domain substituted with methionine; kinase dead (protein, UniProt O00141 1-431, looked up, variant K127M)
Serine/threonine-protein …: MTVKTEAAKGTLTYSRMRGMVAILIAFMKQRRMGLNDFIQKIANNSYACKHPEVQSILKISQPQEPELMNANPSPPPSPSQQINLGPSSNPHAKPSDFHFLKVIGKGSFGKVLLARHKAEEVFYAVMVLQKKAILKKKEEKHIMSERNVLLKNVKHPFLVGLHFSFQTADKLYFVLDYINGGELFYHLQRERCFLEPRARFYAAEIASALGYLHSLNIVYRDLKPENILLDSQGHIVLTDFGLCKENIEHNSTTSTFCGTPEYLAPEVLHKQPYDRTVDWWCLGAVLYEMLYGLPPFYSRNTAEMYDNILNKPLQLKPNITNSARHLLEGLLQKDRTKRLGAKDDFMEIKSHVFFSLINWDDLINKKITPPFNPNVSGPNDLRHFDPEFTEEPVPNSIGKSPDSVLVTASVKEAAEAFLGFSYAPPTDSFL
Sgk
  kinase activity / activation of Sgk mutant: kinase dead form of Sgk
Mammary epithelial cells
  correlation between Sgk positive and TUNEL positive cells: ~55%
Mammary tumor cells
  reduction in number of cell foci compared to the vector control: ~2.5 fold
